The target in assay [1] is proteins of hBMECs (protein extract coated in microtiter wells, ELISA with recombinant ligands) (human (endogenous in hBMECs)). In words: ELISA; protein extract of hBMECs coated in microtiter wells, blocked; recombinant ligand added; detected with HisProbe-HRP conjugate and TMB substrate, absorbance at 450 nm; semi-quantitative. A general note: In an ELISA, binding on a coated surface is turned into a signal by an enzyme label.

The target of assay [2] is proteins of hBMECs (protein extract coated in microtiter wells, ELISA with synthetic analogues) (human (endogenous in hBMECs)). The experiment in a line: ELISA; protein extract of hBMECs coated in microtiter wells, blocked; biotinylated synthetic peptide added; detected with streptavidin-HRP conjugate; semi-quantitative.

Where no end group is shown, it is not given here. The star is where a group is joined. Biotin = O=C1N[C@H]2[C@H](CS[C@H]2CCCCC(=O)*)N1

On to “recombinant NadA (neisserial adhesin A) of Neisseria meningitidis, globular domain with the first coiled-coil structure (domain or fragment)”, for which the absorbance at 450 nm (absorbance at 450 nm) in assay [1] was found to be 1.14. On the same count and under the same terms, the figure for “recombinant domain III of protein E of West Nile virus (domain or fragment)” is 2.2. In the case of GTTYGVCSK(Biotin) [DIII-1 synthetic analogue (…-biotin)], the absorbance in assay [2] turned out to be 2.06 absorbance.

Source of the values: PMC6981161.
